These results are taken from patent publication US20060246046A1 (published 2006).

Residue numbers refer to the chain shown, from its start. Names and notes keep the numbering of the source.

B1: recombinant wild-type tridegin polypeptide (SEQ ID No. 1) from Escherichia coli (protein, not shown: small tags and cut ends)
chain: MKLLPCKEWHQGIPNPRCWCGADLECAQDQYCAFIPQCRPRSELIKPMDDIYQRPVEFPNLPLKPREE
B2: modified tridegin F58A (protein, not shown: small tags and cut ends)
chain: B1 chain with F58A
B3: modified tridegin F34A (protein, not shown: small tags and cut ends)
chain: B1 chain with F34A
B4: modified tridegin M48A (protein, not shown: small tags and cut ends)
chain: B1 chain with M48A
B5: modified tridegin Cys variant C26A; +C38A (protein, not shown: small tags and cut ends)
chain: B1 chain with C26A, C38A
B6: modified tridegin Cys variant C32A (protein, not shown: small tags and cut ends)
chain: B1 chain with C32A
B7: modified tridegin Cys variant C06A (protein, not shown: small tags and cut ends)
chain: B1 chain with C6A
B8: modified tridegin H10A (protein, not shown: small tags and cut ends)
chain: B1 chain with H10A
B9: modified tridegin K07A (protein, not shown: small tags and cut ends)
chain: B1 chain with K7A
B10: modified tridegin Cys variant C20A (protein, not shown: small tags and cut ends)
chain: B1 chain with C20A
B11: modified tridegin P65A (protein, not shown: small tags and cut ends)
chain: B1 chain with P65A
B12: modified tridegin G12A (protein, not shown: small tags and cut ends)
chain: B1 chain with G12A
B13: modified tridegin N60A (protein, not shown: small tags and cut ends)
chain: B1 chain with N60A
B14: modified tridegin R39A (protein, not shown: small tags and cut ends)
chain: B1 chain with R39A
B15: modified tridegin D50A (protein, not shown: small tags and cut ends)
chain: B1 chain with D50A
B16: modified tridegin K02A (protein, not shown: small tags and cut ends)
chain: B1 chain with K2A
B17: modified tridegin I45A (protein, not shown: small tags and cut ends)
chain: B1 chain with I45A
B18: modified tridegin Cys variant C26A (protein, not shown: small tags and cut ends)
chain: B1 chain with C26A
B19: modified tridegin D50A, P55L (protein, not shown: small tags and cut ends)
chain: B1 chain with D50A, P55L
B20: modified tridegin Cys variant C18A (protein, not shown: small tags and cut ends)
chain: B1 chain with C18A

One experiment has as its target T1, factor XIIIa (human, UniProt P00488 39-732).
T1 sequence (looked up): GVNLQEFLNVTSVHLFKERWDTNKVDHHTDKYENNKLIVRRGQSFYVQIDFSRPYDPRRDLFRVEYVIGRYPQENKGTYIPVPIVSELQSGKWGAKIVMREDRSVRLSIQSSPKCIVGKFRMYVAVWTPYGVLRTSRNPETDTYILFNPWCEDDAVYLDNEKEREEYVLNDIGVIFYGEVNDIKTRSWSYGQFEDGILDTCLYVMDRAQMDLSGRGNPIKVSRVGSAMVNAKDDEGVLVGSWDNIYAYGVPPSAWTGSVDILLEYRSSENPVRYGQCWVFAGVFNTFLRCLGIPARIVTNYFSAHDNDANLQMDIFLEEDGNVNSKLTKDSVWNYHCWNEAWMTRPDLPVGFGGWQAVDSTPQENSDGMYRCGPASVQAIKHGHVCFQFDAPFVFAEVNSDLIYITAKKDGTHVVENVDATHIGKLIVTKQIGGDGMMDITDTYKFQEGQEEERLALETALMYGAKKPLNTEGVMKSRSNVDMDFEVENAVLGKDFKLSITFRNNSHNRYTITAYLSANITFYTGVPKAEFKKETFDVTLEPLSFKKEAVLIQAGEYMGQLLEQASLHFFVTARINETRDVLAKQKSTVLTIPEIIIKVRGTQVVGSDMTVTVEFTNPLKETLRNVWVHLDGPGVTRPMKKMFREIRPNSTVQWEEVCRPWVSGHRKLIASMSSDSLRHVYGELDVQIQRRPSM
The experiment can be described thus: cell-based or functional assay.
As for B1, the IC50, Berichrom assay (factor XIIIa activity) was 2 to 4 µM; the Relative inhibitory effect (%) at 5.45 µM, wild type = 100% is 100%; the Relative inhibitory effect (%) at 7.27 µM (reference) was 100%. In the case of B2, the Relative inhibitory effect (%) at 5.45 µM, wild type = 100% came out at 60%. On the same count and under the same terms, as for B3, the figure is 96%; as for B4, 91%. In the case of B5, the Relative inhibitory effect (%) at 5.45 µM, wild type = 100% was 80%. With B6, the Relative inhibitory effect (%) at 5.45 µM, wild type = 100% was 86%. For the molecule B7, the Relative inhibitory effect (%) at 5.45 µM, wild type = 100% turned out to be 72%. Turning to B8, the Relative inhibitory effect (%) at 5.45 µM, wild type = 100% came to 87%. As for B9, the Relative inhibitory effect (%) at 5.45 µM, wild type = 100% was determined as 90%. As to B10, the Relative inhibitory effect (%) at 5.45 µM, wild type = 100% stood at 63%. As to B11, the Relative inhibitory effect (%) at 5.45 µM, wild type = 100% amounted to 51%. For the molecule B12, the Relative inhibitory effect (%) at 5.45 µM, wild type = 100% is 97%. As to B13, the Relative inhibitory effect (%) at 5.45 µM, wild type = 100% was 68%.

B14: the Relative inhibitory effect (%) at 5.45 µM, wild type = 100% was 49%.

Take B15: the Relative inhibitory effect (%) at 5.45 µM, wild type = 100% came out at 53%. Take B16: the Relative inhibitory effect (%) at 5.45 µM, wild type = 100% came to 113%. For the molecule B17, the Relative inhibitory effect (%) at 5.45 µM, wild type = 100% was 115%. As to B18, the Relative inhibitory effect (%) at 5.45 µM, wild type = 100% turned out to be 82%.

For the molecule B19, the Relative inhibitory effect (%) at 5.45 µM, wild type = 100% stood at 84%. The same measure, in the same setting: as for B20, the figure is 93%.

A further experiment has as its target T1, factor XIIIa. The experiment can be described thus: cell-based or functional assay. This is another data set of the same source.
On to Ac-RSELIKPMDDIYQRPVEFPN-NH2 [20 amino acid-long tridegin peptide SEQ ID NO.22], for which the “Relative inhibitory effect (%) at 7.27 µM, recombinant tridegin = 100%” value was 8.64%. Still for that read-out and setting: for Ac-IPQCRPRSELIKPMDDIYQR-NH2 [20 amino acid-long tridegin peptide SEQ ID NO.19] the value was 0%.

As for Ac-YCAFEPQCRPRSELIKPMDD-NH2 (cysteine pairing not given here) [20 amino acid-long tridegin peptide SEQ ID NO.17], the “Relative inhibitory effect (%) at 7.27 µM, recombinant tridegin = 100%” value stood at 12.3%. Turning to Ac-AFIPQCRPRSELIKPMDDIY-NH2 [20 amino acid-long tridegin peptide SEQ ID NO.18], the “Relative inhibitory effect (%) at 7.27 µM, recombinant tridegin = 100%” value stood at 13.3%. Still for that read-out and setting: as for Ac-PCKEWHQGIPNPRCWCGADL-NH2 (cysteine pairing not given here) [20 amino acid-long tridegin peptide SEQ ID NO.4], the figure is 9.8%. Still for that read-out and setting: as for Ac-WCGADLECAQDQYCAFEPQC-NH2 (cysteine pairing not given here) [20 amino acid-long tridegin peptide SEQ ID NO.11], the figure is 0.36%. Ac-NPRCWCGADLECAQDQYCAF-NH2 (cysteine pairing not given here) [20 amino acid-long tridegin peptide SEQ ID NO.9]: the “Relative inhibitory effect (%) at 7.27 µM, recombinant tridegin = 100%” value was determined as 0%. For Ac-DLECAQDQYCAFIPQCRPRS-NH2 (cysteine pairing not given here) [20 amino acid-long tridegin peptide SEQ ID NO.13], the “Relative inhibitory effect (%) at 7.27 µM, recombinant tridegin = 100%” value was found to be 7.96%.

With Ac-KEWHQGIPNPRCWCGADLEC-NH2 (cysteine pairing not given here) [20 amino acid-long tridegin peptide SEQ ID NO.5], the “Relative inhibitory effect (%) at 7.27 µM, recombinant tridegin = 100%” value came out at 1.96%. For Ac-GADLECAQDQYCAFIPQCRP-NH2 (cysteine pairing not given here) [20 amino acid-long tridegin peptide SEQ ID NO.12], the “Relative inhibitory effect (%) at 7.27 µM, recombinant tridegin = 100%” value amounted to 2.49%. Turning to Ac-QCRPRSELIKPMDDIYQRPV-NH2 [20 amino acid-long tridegin peptide SEQ ID NO.20], the “Relative inhibitory effect (%) at 7.27 µM, recombinant tridegin = 100%” value amounted to 11.1%. Regarding Ac-QGIPNPRCWCGADLECAQDQ-NH2 (cysteine pairing not given here) [20 amino acid-long tridegin peptide SEQ ID NO.7], the “Relative inhibitory effect (%) at 7.27 µM, recombinant tridegin = 100%” value is 13.7%. Ac-WHQGIPNPRCWCGADLECAQ-NH2 (cysteine pairing not given here) [20 amino acid-long tridegin peptide SEQ ID NO.6]: the “Relative inhibitory effect (%) at 7.27 µM, recombinant tridegin = 100%” value came to 9.8%. For the molecule Ac-LLPCKEWHQGIPNPRCWCGA-NH2 (cysteine pairing not given here) [20 amino acid-long tridegin peptide SEQ ID NO.3], the “Relative inhibitory effect (%) at 7.27 µM, recombinant tridegin = 100%” value was determined as 5.88%. Still for that read-out and setting: for Ac-ECAQDQYCAFIPQCRPRSEL-NH2 (cysteine pairing not given here) [20 amino acid-long tridegin peptide SEQ ID NO.14] the value was 6.3%; for Ac-DQYCAFIPQCRPRSELIKPM-NH2 (cysteine pairing not given here) [20 amino acid-long tridegin peptide SEQ ID NO.16], 14.8%.

Regarding Ac-MKLLPCKEWHQGIPNPRCWC-NH2 (cysteine pairing not given here) [20 amino acid-long tridegin peptide SEQ ID NO.2], the “Relative inhibitory effect (%) at 7.27 µM, recombinant tridegin = 100%” value came to 0%.

For Ac-RCWCGADLECAQDQYCAFIP-NH2 (cysteine pairing not given here) [20 amino acid-long tridegin peptide SEQ ID NO.10], the “Relative inhibitory effect (%) at 7.27 µM, recombinant tridegin = 100%” value was determined as 5.88%. Ac-AQDQYCAFIPQCRPRSELIK-NH2 (cysteine pairing not given here) [20 amino acid-long tridegin peptide SEQ ID NO.15]: the “Relative inhibitory effect (%) at 7.27 µM, recombinant tridegin = 100%” value is 3.32%. Same read-out and setting: as for Ac-IPNPRCWCGADLECAQDQYC-NH2 (cysteine pairing not given here) [20 amino acid-long tridegin peptide SEQ ID NO.8], the figure is 13.7%; as for Ac-RPRSELIKPMDDIYQRPVEF-NH2 [20 amino acid-long tridegin peptide SEQ ID NO.21], 19.4%; as for Ac-ELIKPMDDIYQRPVEFPNLP-NH2 [20 amino acid-long tridegin peptide SEQ ID NO.23], 24%.
